{
  "source": "IntAct's records for PubMed 27905398",
  "parents": {"B1": {"name": "Zinc finger CCHC domain-containing protein 8 (Homo sapiens), Q6NZY4 (parent)", "chain": "MAAEVYFGDLELFEPFDHPEESIPKPVHTRFKDDDGDEEDENGVGDAELRERLRQCEETIEQLRAENQELKRKLNILTRPSGILVNDTKLDGPILQILFMNNAISKQYHQEIEEFVSNLVKRFEEQQKNDVEKTSFNLLPQPSSIVLEEDHKVEESCAIKNNKEAFSVVGSVLYFTNFCLDKLGQPLLNENPQLSEGWEIPKYHQVFSHIVSLEGQEIQVKAKRPKPHCFNCGSEEHQMKDCPMPRNAARISEKRKEYMDACGEANNQNFQQRYHAEEVEERFGRFKPGVISEELQDALGVTDKSLPPFIYRMRQLGYPPGWLKEAELENSGLALYDGKDGTDGETEVGEIQQNKSVTYDLSKLVNYPGFNISTPRGIPDEWRIFGSIPMQACQQKDVFANYLTSNFQAPGVKSGNKRSSSHSSPGSPKKQKNESNSAGSPADMELDSDMEVPHGSQSSESFQFQPPLPPDTPPLPRGTPPPVFTPPLPKGTPPLTPSDSPQTRTASGAVDEDALTLEELEEQQRRIWAALEQAESVNSDSDVPVDTPLTGNSVASSPCPNELDLPVPEGKTSEKQTLDEPEVPEIFTKKSEAGHASSPDSEVTSLCQKEKAELAPVNTEGALLDNGSVVPNCDISNGGSQKLFPADTSPSTATKIHSPIPDMSKFATGITPFEFENMAESTGMYLRIRSLLKNSPRNQQKNKKASE", "partner": "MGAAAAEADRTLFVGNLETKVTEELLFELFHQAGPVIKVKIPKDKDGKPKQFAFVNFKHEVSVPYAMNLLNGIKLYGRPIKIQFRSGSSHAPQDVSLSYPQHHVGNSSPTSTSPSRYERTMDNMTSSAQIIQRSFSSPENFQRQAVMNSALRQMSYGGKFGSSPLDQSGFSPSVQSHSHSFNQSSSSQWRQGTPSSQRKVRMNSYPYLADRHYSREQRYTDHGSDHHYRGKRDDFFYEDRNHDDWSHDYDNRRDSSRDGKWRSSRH"}, "B2": {"name": "RNA-binding protein 7 (Homo sapiens), Q9Y580 (parent)", "chain": "B1 partner", "partner": "B1 chain"}},
  "data": [
    {"variants_of": "B1", "details": "with rbm7_human RBM7, Q9Y580", "values": [
      {"variant": "F309A;M313E", "effect of a mutation on the interaction": "disrupting interaction strength"},
      {"variant": "L295E;L299E", "effect of a mutation on the interaction": "disrupting interaction strength"}
    ]},
    {"variants_of": "B2", "details": "with zchc8_human ZCCHC8, Q6NZY4", "values": [
      {"variant": "Y65A;L69E", "effect of a mutation on the interaction": "decreasing interaction strength"},
      {"variant": "L25E;L29E", "effect of a mutation on the interaction": "decreasing interaction strength"}
    ]}
  ]
}
